Some results are limits rather than exact numbers.

Assay [1] has as its target human Trypsin (Sigma) (human) (UniProt P07477). Kind of assay: cell-based or functional assay.
Assay [2] addresses AS-SPIK (Abnormal Secreted serine protease inhibitor Kazal), purified or partially purified from the medium of S2-3 cells (human) (UniProt P00995). Kind of assay: cell-based or functional assay.

For the molecule “AS-SPIK (Abnormal Secreted serine protease inhibitor Kazal), purified or partially purified from the medium of S2-3 cells (from UniProt P00995 24-79)”, in assay [1], the inhibition of trypsin digestion of 1 uM BML (Boc-Gln-Ala-Arg-AMC) after 60 minutes, 3 nM AS-SPIK and 2 ng/ml trypsin stood at 70%.

B1: monoclonal antibody IM-CA22 (antibody, V domains shown)
VH: QIQLQQSGPELVKPGTSVKLSCKASGYTFTDYYINWVKQRPGQGLEWIGWIYPGSGNPIYNENFKDKATLTVDTSSTTAYLQLSSLTSEDSAVYFCAREWGCAMDSWGQGTSVTVSS
VL: DIVMTQSPSSLSVSTGEKVTMSCKSSQSLLNSGNQKNYLAWYQQKPGQSPKLLIYGASTRESGVPDRFTGSGSGTEFTLTISSVQAEDLAVYYCQSDYSHPYTFGGGTKLEIK
Regarding B1, the restoration of Trypsin activity (inhibition of AS-SPIK activity) at 60 minutes, 1 ug/ml IM-CA22 pre-incubated with 3 nM AS-SPIK in assay [2] is above 60%.
